Paper PMC7205207, “Modeling and mitigation of high-concentration antibody viscosity through structure-based computer-aided protein design” (PLoS ONE, 2020)
Substitutions are numbered along the chain they refer to. Numbers in names are those of the source.

B1: AB-001 (antibody, V domains shown)
VH: EVQLLESGGGLVQPGGSLRLSCAASGFTFSSYAMSWVRQAPGKGLEWVSYISDDGSLKYYADSVKGRFTISRDNSKNTLYLQMNSLRAEDTAVYYCAKHPYWYGGQLDLWGQGTLVTVSS
VL: SYELTQPPSVSVSPGQTASITCSGDSLGSYFVHWYQQKPGQSPVLVIYDDSNRPSGIPERFSGSNSGNTATLTISGTQAMDEADYYCSAFTHNSDVFGGGTKLTVL
notes: VH of AB-001; VL of AB-001; only the variable regions are written; also called parental AB-001; parental clone; source: HEK293, transient, purified from conditioned medium (protein A, TMAE, HIC)
B2: R2-020 (antibody, V domains shown)
VH: B1 VH with E6Q, Q13K, K98R
VL: B1 VL with E3V, S13A, Q16K, S19R, D50N, N52K
notes: as the VH of m20 (R2-001_HC); as the VL of m20 (R2-001_LC) with D51N (Kabat); only the variable regions are written; source: HEK293, transient, purified from conditioned medium (protein A, TMAE, HIC)
B3: R2-001 (antibody, V domains shown)
VH: B1 VH with E6Q, Q13K, K98R
VL: B1 VL with E3V, S13A, Q16K, S19R, N52K
notes: R2-001_HC: as the VH of m17 (R1-016), on which R2-001 was built; R2-001_LC: as the VL of m17 (R1-016) with FW1 changed to that of IGLV3-21*01; only the variable regions are written; also called round 2 parental R2-001; R2-001_HC with R2-001_LC; source: HEK293, transient, purified from conditioned medium (protein A, TMAE, HIC)
B4: R2-006 (antibody, V domains shown)
VH: B1 VH with E6Q, Q13K, K98R
VL: B1 VL with E3V, S13A, Q16K, S19R, S51K, N52K
notes: as the VH of m20 (R2-001_HC); as the VL of m20 (R2-001_LC) with S52K (Kabat); only the variable regions are written; source: HEK293, transient, purified from conditioned medium (protein A, TMAE, HIC)
B5: R1-016 (antibody, V domains shown)
VH: B1 VH with E6Q, Q13K, K98R
VL: B1 VL with N52K
notes: only the variable regions are written; source: HEK293, transient, purified from conditioned medium (protein A, TMAE, HIC)
B6: R2-009 (antibody, V domains shown)
VH: B1 VH with E6Q, Q13K, K98R
VL: B1 VL with E3V, S13A, Q16K, S19R, N52K, G67K
notes: as the VH of m20 (R2-001_HC); as the VL of m20 (R2-001_LC) with G68K (Kabat); only the variable regions are written; source: HEK293, transient, purified from conditioned medium (protein A, TMAE, HIC)
B7: R2-015 (antibody, V domains shown)
VH: B1 VH with E6Q, Q13K, D62N, K98R
VL: B1 VL with E3V, S13A, Q16K, S19R, N52K
notes: as the VH of m20 (R2-001_HC) with D61N; as the VL of m20 (R2-001_LC); only the variable regions are written; source: HEK293, transient, purified from conditioned medium (protein A, TMAE, HIC)
B8: R2-012 (antibody, V domains shown)
VH: B1 VH with E6Q, Q13K, D53K, K98R
VL: B1 VL with E3V, S13A, Q16K, S19R, N52K
notes: as the VH of m20 (R2-001_HC) with D52aK; as the VL of m20 (R2-001_LC); only the variable regions are written; source: HEK293, transient, purified from conditioned medium (protein A, TMAE, HIC)
B9: R1-003 (antibody, V domains shown)
VH: B1 VH with Q13K, K98R
VL: B1 VL
notes: VL of AB-001 (AB-001_LC); only the variable regions are written; source: HEK293, transient, purified from conditioned medium (protein A, TMAE, HIC)
B10: R1-007 (antibody, V domains shown)
VH: B1 VH with E6Q, Q13K, K98R
VL: B1 VL
notes: as for B9
B11: R1-015 (antibody, V domains shown)
VH: B1 VH with E6Q, Q13K, K98R
VL: B1 VL with D95N
notes: as for B5
B12: R2-014 (antibody, V domains shown)
VH: B1 VH with E6Q, Q13K, D54Q, K98R
VL: B1 VL with E3V, S13A, Q16K, S19R, N52K
notes: as the VH of m20 (R2-001_HC) with D53Q; as the VL of m20 (R2-001_LC); only the variable regions are written; source: HEK293, transient, purified from conditioned medium (protein A, TMAE, HIC)
B13: R1-008 (antibody, V domains shown)
VH: B1 VH
VL: B1 VL with E3V
notes: VH of AB-001 (AB-001_HC); Kabat position; only the variable regions are written; source: HEK293, transient, purified from conditioned medium (protein A, TMAE, HIC)
B14: R2-004 (antibody, V domains shown)
VH: B1 VH with E6Q, Q13K, K98R
VL: B1 VL with E3V, S13A, Q16K, S19R, Y48H, N52K
notes: as the VH of m20 (R2-001_HC); as the VL of m20 (R2-001_LC) with Y49H (Kabat); only the variable regions are written; source: HEK293, transient, purified from conditioned medium (protein A, TMAE, HIC)
B15: R2-017 (antibody, V domains shown)
VH: B1 VH with E6Q, Q13K, K98R, D108Y
VL: B1 VL with E3V, S13A, Q16K, S19R, N52K
notes: as the VH of m20 (R2-001_HC) with D101Y; as the VL of m20 (R2-001_LC); only the variable regions are written; source: HEK293, transient, purified from conditioned medium (protein A, TMAE, HIC)
B16: R1-012 (antibody, V domains shown)
VH: B1 VH with E6Q, Q13K, K98R
VL: B1 VL with E3V
notes: Kabat position; only the variable regions are written; source: HEK293, transient, purified from conditioned medium (protein A, TMAE, HIC)
B17: R2-016 (antibody, V domains shown)
VH: B1 VH with E6Q, Q13K, K98R, D108N
VL: B1 VL with E3V, S13A, Q16K, S19R, N52K
notes: as the VH of m20 (R2-001_HC) with D101N; as the VL of m20 (R2-001_LC); only the variable regions are written; source: HEK293, transient, purified from conditioned medium (protein A, TMAE, HIC)
B18: R2-008 (antibody, V domains shown)
VH: B1 VH with E6Q, Q13K, K98R
VL: B1 VL with E3V, S13A, Q16K, S19R, N52K, S66K
notes: as the VH of m20 (R2-001_HC); as the VL of m20 (R2-001_LC) with S67K (Kabat); only the variable regions are written; source: HEK293, transient, purified from conditioned medium (protein A, TMAE, HIC)

Molecular target: not listed separately
Test: AC-SINS; self-association assay, as in Avery et al. [35]; score = smoothed max absorbance of the antibody sample minus that of the average blank (PBS); scores >=11 considered high
Conditions: other: AC-SINS

For B1, the AC-SINS Score was 22.

Tested on: not listed separately
Test: as above
Conditions: other: AC-SINS
Remark: another data set of the same source

Point of comparison: B5, AC-SINS Score 24. Against it:
- B2 — lower, 4
- B3 — the same, 24
- B4 — higher, 25

Molecular target: T1, human PDGF-BB (platelet derived growth factor B homodimer) (human, UniProt P01127)
T1 construct: Platelet derived growth factor B, human, homodimer, bought from PeproTech; the printed catalogue number may stand for 100-14B; source: bought: PeproTech, Catalog 100-148
T1 sequence (P01127 82-190): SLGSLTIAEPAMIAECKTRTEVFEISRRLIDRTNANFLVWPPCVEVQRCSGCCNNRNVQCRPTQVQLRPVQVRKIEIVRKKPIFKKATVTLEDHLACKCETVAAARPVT
Test: SPR; Biacore T200, full kinetics; antibody captured by anti-human IgG on a CM5 chip; human PDGF-BB at 20, 10, 5, 2.5 and 1.25 nM, 50 s injection; HBS-EP+ N; 25 C; 1:1 Langmuir fit
Conditions: both partners purified

Binder B4 has a Kd of 0.103 nM.

Molecular target: T1, human PDGF-BB (platelet derived growth …)
Test: as above
Conditions: both partners purified
Remark: another data set of the same source

Point of comparison: B2, Kd 0.299 ± 0.00683 nM. Against it:
- B3 — 2.9-fold lower, 0.102 ± 0.0323 nM
- B4 — 3.4-fold lower, 0.0888 ± 0.0295 nM
- B5 — 4-fold lower, 0.0743 ± 0.0137 nM

Point of comparison: B5, koff 0.000357 s⁻¹. Against it:
- B2 — 1.7-fold higher, 0.00061 s⁻¹
- B3 — within 1.5-fold, 0.000292 s⁻¹
- B4 — within 1.5-fold, 0.000336 s⁻¹

Point of comparison: B2, kon 2.04e+06 M⁻¹ s⁻¹. Against it:
- B3 — 1.5-fold higher, 3.09e+06 M⁻¹ s⁻¹
- B4 — 1.9-fold higher, 3.97e+06 M⁻¹ s⁻¹
- B5 — 2.4-fold higher, 4.88e+06 M⁻¹ s⁻¹

Molecular target: T2, human PDGF-BB (platelet derived growth factor B homodimer) (human, UniProt P01127 82-190)
T2 construct: Platelet derived growth factor B, human, homodimer, bought from PeproTech; the printed catalogue number may stand for 100-14B; source: bought: PeproTech, Catalog 100-148
T2 sequence (P01127 82-190): as above
Test: as above
Conditions: both partners purified

Binder B1 has a Kd of 0.0948 ± 0.0292 nM.

B1 gave a koff of 0.000457 s⁻¹.

In the case of B1, the kon is reported as 5.05e+06 M⁻¹ s⁻¹.

Molecular target: T1, human PDGF-BB (platelet derived growth …)
Test: SPR; Biacore T200, off-rate screen; antibody captured (~70 to 100 RU) by anti-human IgG amine-coupled to a CM5 chip; human PDGF-BB injected at a single 2.5 nM for 170 s, dissociation 300 s; HBS-EP+ N (10 mM HEPES, 500 mM NaCl, 3 mM EDTA, 0.05% Tween20, pH 7.4); 25 C
Conditions: both partners purified

Point of comparison: B6, koff 0.000265 s⁻¹. Against it:
- B7 — 3.1-fold higher, 0.000834 s⁻¹
- B8 — within 1.5-fold, 0.000347 s⁻¹
- B9 — 1.7-fold higher, 0.000443 s⁻¹
- B10 — within 1.5-fold, 0.000282 s⁻¹
- B11 — 2.8-fold higher, 0.000752 s⁻¹
- B12 — within 1.5-fold, 0.000396 s⁻¹
- B13 — 2-fold higher, 0.000533 s⁻¹
- B14 — 1.7-fold higher, 0.000439 s⁻¹
- B15 — 2.5-fold higher, 0.000673 s⁻¹
- B2 — within 1.5-fold, 0.000386 s⁻¹
- B16 — within 1.5-fold, 0.000304 s⁻¹
- B17 — within 1.5-fold, 0.000266 s⁻¹
- B18 — within 1.5-fold, 0.000396 s⁻¹
- B3 — 1.6-fold higher, 0.000417 s⁻¹
- B4 — within 1.5-fold, 0.000366 s⁻¹
- B5 — within 1.5-fold, 0.000289 s⁻¹

Molecular target: T2, human PDGF-BB (platelet derived growth …)
Test: as above
Conditions: both partners purified

B1 gave a koff of 0.000319 s⁻¹.
